Reference: patent US20230287082A1 (published 2023)
Substitutions are numbered along the chain they refer to.

B1: ΔB7-H6_S3#24-SEED-PGLALA (bispecific antibody, part only; not given: SEED Fc chains and hu225 Fab, part only)
chain, part: DLKVEMMAGGTQITPLNDNVTIFCNIFYSQPLNITIMGITWFWKSLTFDKEVKVFEFYGDHQEAFRPGAIVSPWRLKSGDASLRLPGIQLEEAGEYRCEVVVTPYKAQGTVQLEVVASPAS
B2: ΔB7-H6_S2#7-SEED-PGLALA (bispecific antibody, part only; not given: SEED Fc chains and hu225 Fab, part only)
chain, part: B1 chain, part with I36S, V101I, A117T
B3: ΔB7-H6_S2#2-SEED-PGLALA (bispecific antibody, part only; not given: SEED Fc chains and hu225 Fab, part only)
chain, part: B1 chain, part with I36S, Y58W, G59D
B4: ΔB7-H6_S3#30-SEED-PGLALA (bispecific antibody, part only; not given: SEED Fc chains and hu225 Fab, part only)
chain, part: B1 chain, part with I36E, Y58W, V101I, Y105L
B5: ΔB7-H6_S3#6-SEED-PGLALA (bispecific antibody, part only; not given: SEED Fc chains and hu225 Fab, part only)
chain, part: B1 chain, part with I36H, Y58W
B6: ΔB7-H6_S3#9-SEED-PGLALA (bispecific antibody, part only; not given: SEED Fc chains and hu225 EGFR Fab, part only)
chain, part: B1 chain, part with I36H, Y58F
B7: ΔB7-H6_S3#17-SEED-PGLALA (bispecific antibody, part only; not given: SEED Fc chains and hu225 EGFR Fab, part only)
chain, part: B1 chain, part with I36S, V101F, Y105L
B8: ΔB7-H6_S3#11-SEED-PGLALA (bispecific antibody, part only; not given: SEED Fc chains and hu225 Fab, part only)
chain, part: B1 chain, part with I36L, Y58W, V101I, Y105F
B9: ΔB7-H6_S3#7-SEED-PGLALA (bispecific antibody, part only; not given: SEED Fc chains and hu225 Fab, part only)
chain, part: B1 chain, part with I36H
B10: ΔB7-H6_S3#8-SEED-PGLALA (bispecific antibody, part only; not given: SEED Fc chains and hu225 EGFR Fab, part only)
chain, part: B1 chain, part with I36H, Y58W, V101I, Y105L
B11: ΔB7-H6_S3#3-SEED-PGLALA (bispecific antibody, part only; not given: SEED Fc chains and hu225 Fab, part only)
chain, part: B1 chain, part with I36H, Y58F, V101F
B12: ΔB7-H6_S3#23-SEED-PGLALA (bispecific antibody, part only; not given: SEED Fc chains and hu225 Fab, part only)
chain, part: B1 chain, part with I36E
B13: ΔB7-H6_S3#10-SEED-PGLALA (bispecific antibody, part only; not given: SEED Fc chains and hu225 Fab, part only)
chain, part: B1 chain, part with I36S, V101F
B14: ΔB7-H6_S2#1-SEED-PGLALA (bispecific antibody, part only; not given: SEED Fc chains and hu225 EGFR Fab, part only)
chain, part: B1 chain, part with I36S
B15: ΔB7-H6_S3#21-SEED-PGLALA (bispecific antibody, part only; not given: SEED Fc chains and hu225 Fab, part only)
chain, part: B1 chain, part with I36L, Y58W
B16: ΔB7-H6_S3#12-SEED-PGLALA (bispecific antibody, part only; not given: SEED Fc chains and hu225 Fab, part only)
chain, part: B1 chain, part with I36E, Y58F
B17: ΔB7-H6_S3#19-SEED-PGLALA (bispecific antibody, part only; not given: SEED Fc chains and hu225 Fab, part only)
chain, part: B1 chain, part with I36Q, Y58W
B18: ΔB7-H6_S3#26-SEED-PGLALA (bispecific antibody, part only; not given: SEED Fc chains and hu225 Fab, part only)
chain, part: B1 chain, part with I36T, Y58W, G59D
B19: ΔB7-H6_S2#3-SEED-PGLALA (bispecific antibody, part only; not given: SEED Fc chains and hu225 Fab, part only)
chain, part: B1 chain, part with I36T, Y58W, Y105L
B20: ΔB7-H6_S3#22-SEED-PGLALA (bispecific antibody, part only; not given: SEED Fc chains and hu225 Fab, part only)
chain, part: B1 chain, part with I36E, Y58W
B21: ΔB7-H6_S3#29-SEED-PGLALA (bispecific antibody, part only; not given: SEED Fc chains and hu225 EGFR Fab, part only)
chain, part: B1 chain, part with I36V, Y58W, V101I
B22: ΔB7-H6_S3#28-SEED-PGLALA (bispecific antibody, part only; not given: SEED Fc chains and hu225 EGFR Fab, part only)
chain, part: B1 chain, part with I36H, Y58W, Y105L
B23: ΔB7-H6_S3#5-SEED-PGLALA (bispecific antibody, part only; not given: SEED Fc chains and hu225 Fab, part only)
chain, part: B1 chain, part with I36V, Y58W
B24: ΔB7-H6_S3#1-SEED-PGLALA (bispecific antibody, part only; not given: SEED Fc chains and hu225 EGFR Fab, part only)
chain, part: B1 chain, part with I36T, Y58W

Target: human NKp30 (human) (UniProt O14931)
Assay: BLI, ratio to ΔB7-H6_wt

Sequence of human NKp30 (human) (O14931 19-135 limits assumed): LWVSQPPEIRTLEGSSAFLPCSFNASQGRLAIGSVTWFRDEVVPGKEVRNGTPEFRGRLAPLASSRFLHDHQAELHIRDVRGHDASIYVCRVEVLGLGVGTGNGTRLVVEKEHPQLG

KD improvement compared to ΔB7-H6 wt [fold]	x-fold KD improvement [fold]	x-fold Koff improvement [fold]	Binder
27.4	27.5	16.1	B1
2.1	2.1	1.7	B2
1.9	1.9	2.3	B3
3.3	3.3	2.2	B4
12.4	12.4	6.9	B5
7.1	7.1	3	B6
6.9	6.9	2.9	B7
10.5	10.5	3.9	B8
3.7	3.7	3.2	B9
5.1	5.1	3.7	B10
3.9	3.9	1.5	B11
3.7	3.7	3.2	B12
2.8	2.8	1.7	B13
2	2	2.2	B14
22.8	22.8	8	B15
3.2	3.2	1.9	B16
2.8	2.8	1.7	B17
3.6	3.6	3.6	B18
2.1	2.1	1.6	B19
4.3	4.3	3.8	B20
16.5	16.5	9.6	B21
0.9	0.9	1.2	B22
18.2	18.2	9.3	B23
10.5	10.5	5.7	B24

Target: human NKp30 (human) (UniProt O14931)
Assay: BLI, immunoligand on anti-hFc tip

Kd [nM]	koff [s⁻¹]	kon [M⁻¹ s⁻¹]	Binder
14.9	0.0104	702000	B1
191	0.0964	504000	B2
217	0.0737	340000	B3
125	0.0776	622000	B4
33.1	0.0244	737000	B5
57.8	0.056	970000	B6
59.1	0.0573	969000	B7
39.1	0.0432	1.11e+06	B8
110	0.0525	478000	B9
80.7	0.0455	564000	B10
104	0.109	1.05e+06	B11
110	0.0525	479000	B12
145	0.0998	689000	B13
205	0.078	380000	B14
17.9	0.0211	1.18e+06	B15
129	0.0865	671000	B16
146	0.0981	673000	B17
113	0.0464	409000	B18
194	0.106	546000	B19
95.2	0.0441	463000	B20
24.8	0.0175	705000	B21
443	0.136	306000	B22
22.5	0.018	799000	B23
39.1	0.0295	754000	B24

Target: NKp30 on human NK cells (human) (UniProt O14931)
Assay: cell-based or functional assay

Sequence of NKp30 on human NK cells (human) (O14931 19-201): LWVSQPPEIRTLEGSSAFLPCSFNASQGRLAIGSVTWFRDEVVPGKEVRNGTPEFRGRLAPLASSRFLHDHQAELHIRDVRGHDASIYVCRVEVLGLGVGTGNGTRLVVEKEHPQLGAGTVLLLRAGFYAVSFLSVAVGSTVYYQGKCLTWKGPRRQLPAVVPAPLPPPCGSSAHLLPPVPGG

A431 EC50 with NK cells (pM)	A431 EC50 with PBMC (pM)	A549 EC50 with NK cells (pM)	A549 EC50 with PBMC (pM)	EC50 (pM), A431 lysis with PBMC [pM]	EC50 improvement compared to ΔB7-H6 wt [fold]	Binder
3.55	39.7	35.2	108	9.3	93	B1
–	–	–	–	170	5	B2
–	–	–	–	169	5	B3
–	–	–	–	176	5	B4
–	–	–	–	40.8	21	B5
–	–	–	–	64	14	B6
–	–	–	–	427	2	B7
–	–	–	–	65.8	13	B8
–	–	–	–	45.4	19	B9
–	–	–	–	43.7	20	B10
–	–	–	–	110	8	B11
–	–	–	–	78	11	B12
–	–	–	–	85	10	B13
–	–	–	–	140	6	B14
–	–	–	–	36.1	24	B15
–	–	–	–	165	5	B16
–	–	–	–	240	4	B17
–	–	–	–	22.7	38	B18
–	–	–	–	175	5	B19
–	–	–	–	106	8	B20
–	33.6	–	172	7.6	114	B21
–	–	–	–	114	8	B22
–	–	–	–	54.7	16	B23
–	–	–	–	61.1	14	B24
